Reference: patent US9274129B2, “Methods and reagents for detecting bioactive lipids” (Lpath, Inc., priority 2006, dated 2016)
“Also recorded” adds a separate entry of the source. Blank lines part the entries; values can stand above or below the molecule they belong to.

Tests used:
[1] = tested on: SKOV3 cells; assay: Taxol-induced apoptosis (caspase activity); assay type: cell-based, human; conditions: Taxol 0.5 mM, 24 h
Protocol: The ability of LPA to protect ovarian tumor cells against apoptosis when exposed to clinically-relevant levels of the chemotherapeutic agent, paclitaxel (Taxol) was investigated. SKVO3 cells were treated with 1% FBS (S), Taxol (0.5 mM), +/−anti-LPA mAbs for 24 h. […] Apoptosis was assayed by measurement of the caspase activity as recommended by the manufacturer (Promega). As anticipated, LPA protected most of the cancer cell lines tested from taxol-induced cell death. […] Moreover, the anti-LPA antibody was able to remove the protection provided by serum. Serum is estimated to contain about 5-20 mM LPA. […] Taxol-induced caspase activation was enhanced by the addition of all 3 of the anti-LPA mAbs to the culture medium.

[2] = Direct ELISA on S1P-coated plates, chimeric antibody and mutants; assay type: binding; conditions: antibody 0.1 ug/ml
Protocol: Microtiter ELISA plates (Costar) were coated overnight with S1P diluted in 1 M Carbonate Buffer (pH 9.5) at 37° C. for 1 hr. Plates were washed with PBS (137 mM NaCl, 2.68 mM KCl, 10.1 mM Na2HPO4, 1.76 mM KH2PO4; pH 7.4) and blocked with PBS/BSA/Tween-20 for 1 hr at room temp or overnight at 4° C. For the primary incubation (1 hr at room temp.), a standard curve using the anti-S1P mAb and the samples to be tested for binding was built using the following set of dilutions: 0.4 μg/mL, 0.2 μg/mL, 0.1 μg/mL, 0.05 μg/mL, 0.0125 μg/mL, and 0 μg/mL, and 100 μl added to each well. Plates were washed and incubated with 100 μl per well of HRP conjugated goat anti-mouse (1:20,000 dilution) (Jackson Immuno Research) or HRP conjugated goat anti-human (H+L) diluted 1:50,000 (Jackson Immuno Research) for 1 hr at room temperature. After washing, the enzymatic reaction was detected with tetramethylbenzidine (Sigma) and stopped by adding 1 M H2SO4. The optical density (OD) was measured at 450 nm using a Thermo Multiskan EX. Raw data were transferred to GraphPad software for analysis.
The chromogenic reaction was measured and reported as Optical density (OD). The concentration of the panel of antibodies was 0.1 ug/ml. No interaction of the second antibody with S1P-coated matrix alone was detected.

[3] = tested on: selected human cancer cell lines; assay: LPA-induced cancer cell proliferation; assay type: cell-based; conditions: LPA 0.01 mM to 10 mM, 7 human-derived and one rat-derived line, dose dependent
Protocol: LPA is a potent growth factor supporting cell survival and proliferation by stimulation of Gi, Gq and G12/13 via GPCR-receptors and activation of downstream signaling events. Cell lines were tested for their proliferative response to LPA ([…]). Cell proliferation was assayed by using the cell proliferation assay kit from Chemicon (Temecula Calif.) (Panc-1) and the Cell-Blue titer from Pierce (Caki-1). Each data point is the mean of three independent experiments. […] Even though tumor-derived cells normally have high basal levels of proliferation, LPA appears to further augment proliferation in most tumor cell lines. Anti-LPA mAbs (B7 and B58) were assessed for the ability to inhibit LPA-induced proliferation in selected human cancer cell lines.

[4] = tested on: Caki-1 cells; assay: In vitro IL-8 production, Caki-1; assay type: cell-based, human; conditions: 18:1 LPA 0.2 mM, 24 h, cells without mAb
Protocol: Three anti-LPA mAbs (B3, B7 and B58) were tested for their abilities to reduce in vitro IL-8 production compared to a non-specific antibody (NS). Caki-1 cells were seeded in 96 well plates and grown to confluency. After overnight serum starvation, cells were treated with 18:1 LPA (0.2 mM) with or without anti-LPA mAb B3, B7, B58 or NS (Non-Specific). After 24 h, cultured supernatants of renal cancer cells (Caki-1), treated with or without LPA and in presence of increasing concentrations of the anti-LPA mAbs B3, B7 and B58, were collected and analyzed for IL-8 levels using a commercially available ELISA kit (Human Quantikine Kit, R&D Systems, Minneapolis, Minn.). […] Similar results were obtained with the other well-known pro-angiogenic factor, VEGF. The inhibition of IL-8 release by the anti-LPA mAbs was also observed in other cancerous cell lines such as the pancreatic cell line Panc-1.

[5] = Competitive ELISA of anti-S1P mAb, competitor C1P; assay type: binding
Protocol: (§1) Screening of serum and cell supernatant for SIP-specific antibodies was by direct ELISA using the thiolated S1P analog described in Example 1 (i.e., compound 10) as the antigen. A standard ELISA was performed, as described below, except that 50 ul of sample (serum or cell supernatant) was diluted with an equal volume of PBS/0.1% Tween-20 (PBST) during the primary incubation. ELISAs were performed in 96-well high binding ELISA plates (Costar) coated with 0.1 μg of chemically-synthesized compound 10 conjugated to BSA in binding buffer (33.6 mM Na2CO3, 100 mM NaHCO3; pH 9.5). The thiolated-S1P-BSA was incubated at 37° C. for 1 hr. at 4° C. overnight in the ELISA plate wells. The plates were then washed four times with PBS (137 mM NaCl, 2.68 mM KCl, 10.14 mM Na2HPO4, 1.76 mM KH2PO4; pH 7.4) and blocked with PBST for 1 hr. at room temperature. For the primary incubation step, 75 uL of the sample (containing the S1P to be measured), was incubated with 25 uL of 0.1 ug/mL anti-S1P mAb diluted in PBST and added to a well of the ELISA plate. […] Optical density of the samples was determined by measurement at 450 nm using an EL-X-800 ELISA plate reader (Bio-Tech).
(§2) For cross reactivity, a competitive ELISA was performed as described above, except for the following alterations (FIG. 4). […] Biotin incorporation was determined as per kit protocol and ranged from 7 to 11 biotin molecules per antibody. […]

[6] = Competitive ELISA of anti-S1P mAb, competitor S1P; assay type: binding
Protocol: as §1, §2

[7] = Competitive ELISA of anti-S1P mAb, competitor SPC; assay type: binding
Protocol: as §1, §2

[8] = Competitive ELISA of anti-S1P mAb, competitor LPA; assay type: binding
Protocol: as §1, §2

[9] = ELISA with exchanged crosslinker or protein carrier in the laydown material; assay type: binding
Source text: For example, the normal crosslinker SMCC was exchanged for IOA in conjugating the thiolated-S1P to BSA as the laydown material in the ELISA. […] Similarly, KLH was exchanged for BSA as the protein that was complexed with thiolated-S1P as the laydown material.

[10] = Competitive ELISA of anti-S1P mAb, competitor DH-S1P; assay type: binding
Protocol: as §1, §2

Molecule: CC(=O)O[C@H]1C(=O)[C@@]2(C)[C@H]([C@H](OC(=O)c3ccccc3)[C@]3(O)C[C@H](OC(=O)[C@H](O)[C@@H](NC(=O)c4ccccc4)c4ccccc4)C(C)=C1C3(C)C)[C@]1(OC(C)=O)CO[C@@H]1C[C@@H]2O [Taxol, paclitaxel]
caspase-3,7 activation [1]: induced caspase-3,7 activation

Molecule: CysPhe
Binding [2]: 2 OD

Molecule: lysophosphatidic acid [LPA]
proliferation of tumor cell lines [3]: increased proliferation | increase of IL-8 expression [4]: 100%

Now from value to molecule, other results behind:

Binding [2]: 1.6 OD
Molecule: MetLeu

antibody binding to C1P [5]: no antibody binding was observed | competition by free S1P for mAb binding to S1P on the plate [6]: can compete for binding | antibody binding to LPA [8]: no binding | binding characteristics with KLH exchanged for BSA as carrier ([9]; laydown thiolated-S1P complexed with protein): no significant difference | binding characteristics with IOA instead of SMCC as crosslinker ([9]; laydown thiolated-S1P conjugated to BSA, compared with BSA-SMCC-thiolated-S1P): nearly identical | competition by free DH-S1P for mAb binding to S1P on the plate [10]: can compete for binding
B1: anti-S1P mAb: murine monoclonal antibody directed against S1P from hybridoma clone 306D326.26 (ATCC SD-5362) (antibody, listed as Mus musculus, V domains shown)
VH: QAHLQQSDAELVKPGASVKISCKVSGFIFIDHTIHWMKQRPEQGLEWIGCISPRHDITKYNEMFRGKATLTADKSSTTAYIQVNSLTFEDSAVYFCARGGFYGSTIWFDFWGQGTTLTVS
VL: ETTVTQSPASLSMAIGEKVTIRCITTTDIDDDMNWFQQKPGEPPNLLISEGNILRPGVPSRFSSSGYGTDFLFTIENMLSEDVADYYCLQSDNLPFTFGSGTKLEIK
distinction of thiolated-S1P analog (compound 10) from natural S1P [6]: unable to distinguish | competition by SPC for mAb binding to S1P on the plate [7]: somewhat reduced; also recorded: only slightly competes for binding
